Blank lines part the entries; values can stand above or below the binder they belong to.
Assays:
[1] = target: Flag-VPS34 previously ubiquitinated in vitro by UBE3C, Q8NEB9
[2] = target: T1, Rubicon (UniProt Q92622 1-972, limits assumed); assay: immunoprecipitation in 293T cells transfected with Flag-TRABID, fed or starved 2 h (FIG. 2R)
T1 sequence (looked up): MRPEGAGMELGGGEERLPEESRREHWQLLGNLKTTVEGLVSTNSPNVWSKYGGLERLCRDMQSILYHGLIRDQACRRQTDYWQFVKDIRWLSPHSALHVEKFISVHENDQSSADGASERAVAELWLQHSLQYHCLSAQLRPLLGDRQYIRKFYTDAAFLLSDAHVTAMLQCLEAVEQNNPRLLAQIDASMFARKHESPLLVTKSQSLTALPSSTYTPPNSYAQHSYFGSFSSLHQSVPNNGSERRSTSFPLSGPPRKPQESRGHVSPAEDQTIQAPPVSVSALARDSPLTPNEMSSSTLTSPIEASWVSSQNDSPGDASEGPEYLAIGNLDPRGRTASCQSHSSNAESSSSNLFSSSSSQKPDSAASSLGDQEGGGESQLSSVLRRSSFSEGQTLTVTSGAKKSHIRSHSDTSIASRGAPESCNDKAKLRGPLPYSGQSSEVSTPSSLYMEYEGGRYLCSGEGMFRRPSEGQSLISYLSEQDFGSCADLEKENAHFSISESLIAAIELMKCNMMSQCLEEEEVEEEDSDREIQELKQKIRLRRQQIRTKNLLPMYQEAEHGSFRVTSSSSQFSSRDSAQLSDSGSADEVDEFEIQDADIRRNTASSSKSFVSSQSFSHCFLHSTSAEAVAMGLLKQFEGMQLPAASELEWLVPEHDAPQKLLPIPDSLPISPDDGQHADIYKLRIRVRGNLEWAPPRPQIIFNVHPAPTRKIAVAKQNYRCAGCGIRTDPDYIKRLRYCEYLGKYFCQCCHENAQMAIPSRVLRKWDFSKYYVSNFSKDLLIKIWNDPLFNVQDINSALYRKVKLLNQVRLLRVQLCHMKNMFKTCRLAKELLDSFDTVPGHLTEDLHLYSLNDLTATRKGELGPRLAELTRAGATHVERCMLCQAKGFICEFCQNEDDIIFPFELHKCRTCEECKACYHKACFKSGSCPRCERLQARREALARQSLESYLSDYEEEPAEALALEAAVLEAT

[3] = target: T2, endogenous VPS34 (UniProt Q8NEB9 1-887); assay: co-immunoprecipitation from 293T cells (FIG. 2I)
T2 construct: also called vacuolar protein sorting 34; PI3 Kinase Class III
T2 sequence (Q8NEB9 whole entry): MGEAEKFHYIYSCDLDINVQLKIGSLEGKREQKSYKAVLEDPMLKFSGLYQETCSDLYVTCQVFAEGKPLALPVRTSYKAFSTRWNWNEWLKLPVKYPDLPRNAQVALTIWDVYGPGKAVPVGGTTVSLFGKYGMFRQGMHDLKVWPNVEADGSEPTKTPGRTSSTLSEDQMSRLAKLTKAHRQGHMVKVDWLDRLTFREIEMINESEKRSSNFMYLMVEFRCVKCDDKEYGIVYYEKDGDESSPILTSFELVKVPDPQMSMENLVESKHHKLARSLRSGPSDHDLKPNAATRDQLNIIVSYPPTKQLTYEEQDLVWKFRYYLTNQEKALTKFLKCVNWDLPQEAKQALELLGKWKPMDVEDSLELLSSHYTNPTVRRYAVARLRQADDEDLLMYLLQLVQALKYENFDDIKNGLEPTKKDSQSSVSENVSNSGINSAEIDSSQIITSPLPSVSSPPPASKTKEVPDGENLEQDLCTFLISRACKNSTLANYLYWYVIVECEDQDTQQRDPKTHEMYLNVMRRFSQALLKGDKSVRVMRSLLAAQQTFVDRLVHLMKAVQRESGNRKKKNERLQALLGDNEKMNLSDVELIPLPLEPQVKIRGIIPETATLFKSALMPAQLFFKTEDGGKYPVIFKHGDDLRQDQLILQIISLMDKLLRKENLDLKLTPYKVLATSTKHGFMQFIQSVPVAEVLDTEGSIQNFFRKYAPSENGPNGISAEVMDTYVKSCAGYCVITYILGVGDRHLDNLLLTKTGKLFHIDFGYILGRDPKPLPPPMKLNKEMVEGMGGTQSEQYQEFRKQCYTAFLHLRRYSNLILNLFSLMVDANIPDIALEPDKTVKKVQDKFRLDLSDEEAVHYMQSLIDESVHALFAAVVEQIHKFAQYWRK

[4] = target: Flag-VPS34, Q8NEB9
Chain of Flag-VPS34, Q8NEB9 (Q8NEB9 whole entry, looked up): as the sequence (Q8NEB9 whole entry) above

Chain of Flag-VPS34 previously ubiquitinated in vitro by UBE3C, Q8NEB9 (Q8NEB9 whole entry, looked up): as the sequence (Q8NEB9 whole entry) above

B1: purified TRABID (Boston Biochem; E-560) (protein)
chain: MSERGIKWACEYCTYENWPSAIKCTMCRAQRPSGTIITEDPFKSGSSDVGRDWDPSSTEGGSSPLICPDSSARPRVKSSYSMENANKWSCHMCTYLNWPRAIRCTQCLSQRRTRSPTESPQSSGSGSRPVAFSVDPCEEYNDRNKLNTRTQHWTCSVCTYENWAKAKRCVVCDHPRPNNIEAIELAETEEASSIINEQDRARWRGSCSSGNSQRRSPPATKRDSEVKMDFQRIELAGAVGSKEELEVDFKKLKQIKNRMKKTDWLFLNACVGVVEGDLAAIEAYKSSGGDIARQLTADEVRLLNRPSAFDVGYTLVHLAIRFQRQDMLAILLTEVSQQAAKCIPAMVCPELTEQIRREIAASLHQRKGDFACYFLTDLVTFTLPADIEDLPPTVQEKLFDEVLDRDVQKELEEESPIINWSLELATRLDSRLYALWNRTAGDCLLDSVLQATWGIYDKDSVLRKALHDSLHDCSHWFYTRWKDWESWYSQSFGLHFSLREEQWQEDWAFILSLASQPGASLEQTHIFVLAHILRRPIIVYGVKYYKSFRGETLGYTRFQGVYLPLLWEQSFCWKSPIALGYTRGHFSALVAMENDGYGNRGAGANLNTDDDVTITFLPLVDSERKLLHVHFLSAQELGNEEQQEKLLREWLDCCVTEGGVLVAMQKSSRRRNHPLVTQMVEKWLDRYRQIRPCTSLSDGEEDEDDEDE
in vitro deubiquitination assay, Western blot of total and K48 ubiquitin linkages on VPS34 (FIG. 2K) [1]: purified TRABID was capable of reducing the total and K48 ubiquitin linkages from this VPS34 in vitro

B4: HA-UBE3C (protein)
chain: MFSFEGDFKTRPKVSLGGASRKEEKASLLHRTQEERRKREEERRRLKNAIIIQSFIRGYRDRKQQYSIQRSAFDRCATLSQSGGAFPIANGPNLTLLVRQLLFFYKQNEDSKRLIWLYQNLIKHSSLFVKQLDGSERLTCLFQIKRLMSLCCRLLQNCNDDSLNVALPMRMLEVFSSENTYLPVLQDASYVVSVIEQILHYMIHNGYYRSLYLLINSKLPSSIEYSDLSRVPIAKILLENVLKPLHFTYNSCPEGARQQVFTAFTEEFLAAPFTDQIFHFIIPALADAQTVFPYEPFLNALLLIESRCSRKSGGAPWLFYFVLTVGENYLGALSEEGLLVYLRVLQTFLSQLPVSPASASCHDSASDSEEESEEADKPSSPEDGRLSVSYITEECLKKLDTKQQTNTLLNLVWRDSASEEVFTTMASVCHTLMVQHRMMVPKVRLLYSLAFNARFLRHLWFLISSMSTRMITGSMVPLLQVISRGSPMSFEDSSRIIPLFYLFSSLFSHSLISIHDNEFFGDPIEVVGQRQSSMMPFTLEELIMLSRCLRDACLGIIKLAYPETKPEVREEYITAFQSIGVTTSSEMQQCIQMEQKRWIQLFKVITNLVKMLKSRDTRRNFCPPNHWLSEQEDIKADKVTQLYVPASRHVWRFRRMGRIGPLQSTLDVGLESPPLSVSEERQLAVLTELPFVVPFEERVKIFQRLIYADKQEVQGDGPFLDGINVTIRRNYIYEDAYDKLSPENEPDLKKRIRVHLLNAHGLDEAGIDGGGIFREFLNELLKSGFNPNQGFFKTTNEGLLYPNPAAQMLVGDSFARHYYFLGRMLGKALYENMLVELPFAGFFLSKLLGTSADVDIHHLASLDPEVYKNLLFLKSYEDDVEELGLNFTVVNNDLGEAQVVELKFGGKDIPVTSANRIAYIHLVADYRLNRQIRQHCLAFRQGLANVVSLEWLRMFDQQEIQVLISGAQVPISLEDLKSFTNYSGGYSADHPVIKVFWRVVEGFTDEEKRKLLKFVTSCSRPPLLGFKELYPAFCIHNGGSDLERLPTASTCMNLLKLPEFYDETLLRSKLLYAIECAAGFELS
in vitro ubiquitination assay, Western blot of polyubiquitin chain on VPS34 (FIG. 3I) [4]: baculovirally purified UBE3C could assemble polyubiquitin chain on VPS34 purified from 293T cells

The next lines start with the values.

binding result [2]: no binding
B2: Flag-TRABID (enzyme)
chain: MSERGIKWACEYCTYENWPSAIKCTMCRAQRPSGTIITEDPFKSGSSDVGRDWDPSSTEGGSSPLICPDSSARPRVKSSYSMENANKWSCHMCTYLNWPRAIRCTQCLSQRRTRSPTESPQSSGSGSRPVAFSVDPCEEYNDRNKLNTRTQHWTCSVCTYENWAKAKRCVVCDHPRPNNIEAIELAETEEASSIINEQDRARWRGSCSSGNSQRRSPPATKRDSEVKMDFQRIELAGAVGSKEELEVDFKKLKQIKNRMKKTDWLFLNACVGVVEGDLAAIEAYKSSGGDIARQLTADEVRLLNRPSAFDVGYTLVHLAIRFQRQDMLAILLTEVSQQAAKCIPAMVCPELTEQIRREIAASLHQRKGDFACYFLTDLVTFTLPADIEDLPPTVQEKLFDEVLDRDVQKELEEESPIINWSLELATRLDSRLYALWNRTAGDCLLDSVLQATWGIYDKDSVLRKALHDSLHDCSHWFYTRWKDWESWYSQSFGLHFSLREEQWQEDWAFILSLASQPGASLEQTHIFVLAHILRRPIIVYGVKYYKSFRGETLGYTRFQGVYLPLLWEQSFCWKSPIALGYTRGHFSALVAMENDGYGNRGAGANLNTDDDVTITFLPLVDSERKLLHVHFLSAQELGNEEQQEKLLREWLDCCVTEGGVLVAMQKSSRRRNHPLVTQMVEKWLDRYRQIRPCTSLSDGEEDEDDEDE
notes: not shown: Flag tag

binding result [3]: binds
B3: endogenous TRABID (enzyme)
chain: MSERGIKWACEYCTYENWPSAIKCTMCRAQRPSGTIITEDPFKSGSSDVGRDWDPSSTEGGSSPLICPDSSARPRVKSSYSMENANKWSCHMCTYLNWPRAIRCTQCLSQRRTRSPTESPQSSGSGSRPVAFSVDPCEEYNDRNKLNTRTQHWTCSVCTYENWAKAKRCVVCDHPRPNNIEAIELAETEEASSIINEQDRARWRGSCSSGNSQRRSPPATKRDSEVKMDFQRIELAGAVGSKEELEVDFKKLKQIKNRMKKTDWLFLNACVGVVEGDLAAIEAYKSSGGDIARQLTADEVRLLNRPSAFDVGYTLVHLAIRFQRQDMLAILLTEVSQQAAKCIPAMVCPELTEQIRREIAASLHQRKGDFACYFLTDLVTFTLPADIEDLPPTVQEKLFDEVLDRDVQKELEEESPIINWSLELATRLDSRLYALWNRTAGDCLLDSVLQATWGIYDKDSVLRKALHDSLHDCSHWFYTRWKDWESWYSQSFGLHFSLREEQWQEDWAFILSLASQPGASLEQTHIFVLAHILRRPIIVYGVKYYKSFRGETLGYTRFQGVYLPLLWEQSFCWKSPIALGYTRGHFSALVAMENDGYGNRGAGANLNTDDDVTITFLPLVDSERKLLHVHFLSAQELGNEEQQEKLLREWLDCCVTEGGVLVAMQKSSRRRNHPLVTQMVEKWLDRYRQIRPCTSLSDGEEDEDDEDE
